B1: recombinant AntiMET-R produced by carcinoma cell lines transduced with the bi-directional lentiviral vector carrying AntiMET-R cDNAs (antibody, mouse IgG2a, kappa, V domains shown)
VH: QVQLQQPGTELVKPGASVKLSCKASGYTFTSYWIHWVKQRPGQGLEWIGEINPSSGRTNYNEKFKNKVTVTVDKSSTTAYMQLSNLTSEDSAVYYCASRGYWGQGTTLTVSS
VL: DIVLTQSPASLAVSLGQRATISCKASQSVDYDGGSYMSWFQQRPGQPPKLLISAASNLESGIPARFSGSGSGTDFTLNIHPVEEEDVATYYCQQSYEDPLTFGAGTKLELKR
B2: AntiMET-R, anti-Met monoclonal antibody produced by the hybridoma cell line ICLC PD 05006 (antibody, mouse IgG2a, kappa, V domains shown)
VH: B1 VH
VL: B1 VL
notes: Mouse monoclonal antibody from a hybridoma; They may include leader peptides; also called purified AntiMET-R

Legend:
[1] = target: T1, Hepatocyte Growth Factor Receptor (HGFR, Met receptor), full length, endogenous in human tumor cells (GTL-16) (human, UniProt P08581 25-1390); test: immunoprecipitation of Met receptor from cell lysates, Western blot with anti-Met C-terminal antibody (FIG. 11A)
T1 construct: whole, on cells; The mature receptor is a disulfide-linked alpha/beta heterodimer cleaved from one precursor; also called HGF receptor
T1 sequence (P08581 25-1390): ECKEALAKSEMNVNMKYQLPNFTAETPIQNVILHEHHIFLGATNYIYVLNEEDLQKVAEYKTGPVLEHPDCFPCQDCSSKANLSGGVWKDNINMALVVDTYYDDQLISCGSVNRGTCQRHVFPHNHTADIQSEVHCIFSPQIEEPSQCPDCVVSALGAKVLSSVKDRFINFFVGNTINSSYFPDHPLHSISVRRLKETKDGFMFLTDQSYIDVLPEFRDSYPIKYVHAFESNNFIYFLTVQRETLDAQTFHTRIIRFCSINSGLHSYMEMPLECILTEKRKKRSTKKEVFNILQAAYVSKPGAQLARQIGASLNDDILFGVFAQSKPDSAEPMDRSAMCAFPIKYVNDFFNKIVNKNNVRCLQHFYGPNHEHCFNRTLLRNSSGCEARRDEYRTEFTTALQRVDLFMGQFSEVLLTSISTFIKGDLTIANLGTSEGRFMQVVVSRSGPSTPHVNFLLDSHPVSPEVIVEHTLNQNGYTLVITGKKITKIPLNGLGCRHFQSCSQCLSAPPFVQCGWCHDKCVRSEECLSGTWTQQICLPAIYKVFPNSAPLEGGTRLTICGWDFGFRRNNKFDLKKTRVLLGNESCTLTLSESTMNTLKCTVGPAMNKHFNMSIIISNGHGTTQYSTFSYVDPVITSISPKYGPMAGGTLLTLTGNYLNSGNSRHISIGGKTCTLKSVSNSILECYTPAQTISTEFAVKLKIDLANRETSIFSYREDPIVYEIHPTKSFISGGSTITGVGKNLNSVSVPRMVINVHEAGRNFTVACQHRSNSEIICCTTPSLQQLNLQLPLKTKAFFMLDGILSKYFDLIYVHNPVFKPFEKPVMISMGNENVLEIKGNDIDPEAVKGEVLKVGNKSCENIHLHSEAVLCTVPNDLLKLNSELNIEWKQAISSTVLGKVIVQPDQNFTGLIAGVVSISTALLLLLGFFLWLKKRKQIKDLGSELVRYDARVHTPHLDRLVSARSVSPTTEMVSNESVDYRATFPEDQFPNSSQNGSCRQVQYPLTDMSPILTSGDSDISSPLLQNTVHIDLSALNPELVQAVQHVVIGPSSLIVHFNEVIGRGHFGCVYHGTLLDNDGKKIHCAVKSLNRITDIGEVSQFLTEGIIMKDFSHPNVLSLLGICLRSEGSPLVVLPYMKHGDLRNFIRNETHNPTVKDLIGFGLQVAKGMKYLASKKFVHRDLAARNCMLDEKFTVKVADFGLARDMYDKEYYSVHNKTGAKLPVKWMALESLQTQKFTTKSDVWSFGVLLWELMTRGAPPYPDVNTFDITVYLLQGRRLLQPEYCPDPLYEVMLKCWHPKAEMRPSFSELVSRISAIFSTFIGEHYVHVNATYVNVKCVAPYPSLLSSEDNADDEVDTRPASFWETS
Protocol: FIG. 11: The recombinant AntiMET-R binds with high affinity the extracellular domain of Met. (A) Western blot analysis of cell lysates containing the Met Receptor immunoprecipitated with the AntiMET-R derived from different sources (hybridoma or genetically modified carcinoma cell line). The immunoprecipitation was performed incubating Seph. Prot. G with cell culture supernatants from 1: Hybridoma producing unrelated MAb; 2 Hybridoma producing AntiMET-R MAb; 3: MDA-MB 435 cells infected with lentiviral vector carrying cDNAs for AntiMET-R MAb 4: MDA-MB 435 cells not infected. Samples were subjected to SDS-PAGE under reducing condition and the corresponding filters were probed with an anti-Met antibody directed against the c-Terminal tail of the receptor. (B) Binding assay of the AntiMET-R and the recombinant AntiMET-R to the extracellular domain of the Met Receptor. 96 wells plate coated with purified MET extracellular domain fused to the Fc domain derived from Human Ig (100 ng/well) was incubated with increasing concentrations of purified AntiMET-R or recombinant AntiMET-R (from 0 to 5.5 nM). […] To control the specificity of binding we performed the same assay using wells coated with Fc-Ron (a chimera protein generated fusing the Fc domain of Human Ig to the extracellular domain of the Ron receptor, a protein belonging to the Met receptor family).

[2] = target: T2, Decoy Met (aminoacids 1-932), soluble recombinant entire extracellular region of human Met, myc- and … (human, UniProt P08581 25-932); test: immunoprecipitation from conditioned medium, Western blot with anti-myc
T2 construct: range 25-932; Numbering follows GenBank X54559; also called myc-tagged Decoy Met; Met ectodomain
T2 sequence (P08581 25-932 limits assumed): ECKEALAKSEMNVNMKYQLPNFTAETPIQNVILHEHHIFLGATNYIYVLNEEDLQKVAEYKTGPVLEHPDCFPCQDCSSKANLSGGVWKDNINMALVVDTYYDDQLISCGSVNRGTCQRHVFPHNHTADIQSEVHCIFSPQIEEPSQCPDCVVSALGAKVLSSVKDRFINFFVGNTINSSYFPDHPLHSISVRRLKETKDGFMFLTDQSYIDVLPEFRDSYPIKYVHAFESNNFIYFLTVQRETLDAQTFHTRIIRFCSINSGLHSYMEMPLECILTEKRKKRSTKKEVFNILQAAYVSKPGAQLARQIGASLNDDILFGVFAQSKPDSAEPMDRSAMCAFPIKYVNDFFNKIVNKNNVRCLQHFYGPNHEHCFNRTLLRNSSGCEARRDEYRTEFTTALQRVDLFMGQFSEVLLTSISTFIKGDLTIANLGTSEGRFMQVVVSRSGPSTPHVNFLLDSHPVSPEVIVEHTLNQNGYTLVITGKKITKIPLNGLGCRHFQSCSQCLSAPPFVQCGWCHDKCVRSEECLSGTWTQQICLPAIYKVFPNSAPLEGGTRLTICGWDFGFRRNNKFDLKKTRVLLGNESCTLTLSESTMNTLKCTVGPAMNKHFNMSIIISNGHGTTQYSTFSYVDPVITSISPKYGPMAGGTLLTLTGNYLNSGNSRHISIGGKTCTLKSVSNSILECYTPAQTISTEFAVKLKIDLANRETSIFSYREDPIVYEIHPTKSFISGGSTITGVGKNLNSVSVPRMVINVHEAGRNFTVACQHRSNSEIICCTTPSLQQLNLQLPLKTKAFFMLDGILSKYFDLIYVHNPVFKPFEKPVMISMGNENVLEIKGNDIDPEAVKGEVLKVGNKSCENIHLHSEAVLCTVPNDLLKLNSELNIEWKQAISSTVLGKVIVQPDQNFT
Source text: (§1) FIG. 18: AntiMET-R specifically recognizes an epitope located in the IPTs region. Conditioned media of MDA-MB-435 cells transduced with lentiviral vector particles encoding for myc-tagged Decoy Met, myc-tagged SEMA PSI and myc-tagged PSI IPT1-4 were immunoprecipitated with the antiMET-R antibody and detected by Western blot using a biotinylated anti-myc antibody (right panel). Equal amounts of conditioned media were loaded as a control for protein expression (left panel). CTRL: conditioned medium of MDA-MB-435 cells transduced with an empty lentiviral vector. Decoy Met: conditioned medium of MDA-MB-435 cells transduced with a lentiviral vector expressing the entire HGFR extracellular domain. PSI-IPT: conditioned medium of MDA-MB-435 cells transduced with a lentiviral vector expressing PSI, IPT-1, IPT-2, IPT-3, IPT-4 domains of the HGFR. SEMA-PSI: conditioned medium of MDA-MB-435 cells transduced with a lentiviral vector expressing Sema and PSI domains of the HGFR. On the right molecular weight in KD are shown.
(§2) Conditioned media of MDA-MB-435 cells transduced with myc-tagged Decoy Met, SEMA PSI and PSI IPT were immunoprecipitated with the AntiMET-R antibody and detected by Western blot using a biotinylated anti-myc antibody (FIG. 18, right panel). […]

[3] = target: T3, SEMA PSI (aminoacids 1-562), truncated form of Decoy Met containing the SEMA domain and the PSI region, myc- … (human, UniProt P08581 25-562); test: as above
T3 construct: range 25-562; also called myc-tagged SEMA PSI
T3 sequence (P08581 25-562 limits assumed): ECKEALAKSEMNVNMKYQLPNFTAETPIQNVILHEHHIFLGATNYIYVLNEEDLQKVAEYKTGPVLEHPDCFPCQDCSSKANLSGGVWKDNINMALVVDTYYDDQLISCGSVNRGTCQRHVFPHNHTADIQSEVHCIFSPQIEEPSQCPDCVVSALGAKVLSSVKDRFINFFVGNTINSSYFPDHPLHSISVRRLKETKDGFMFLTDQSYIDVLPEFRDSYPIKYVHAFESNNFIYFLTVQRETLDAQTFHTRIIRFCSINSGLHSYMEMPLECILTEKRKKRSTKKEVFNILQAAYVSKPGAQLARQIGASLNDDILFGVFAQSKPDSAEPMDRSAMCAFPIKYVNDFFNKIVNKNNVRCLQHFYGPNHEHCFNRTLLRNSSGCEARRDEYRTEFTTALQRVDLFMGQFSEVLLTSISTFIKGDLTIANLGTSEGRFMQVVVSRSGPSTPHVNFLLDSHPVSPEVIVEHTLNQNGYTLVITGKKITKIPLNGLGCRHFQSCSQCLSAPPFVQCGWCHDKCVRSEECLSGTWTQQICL
Source text: as §1, §2

[4] = target: T1, Hepatocyte Growth Factor Receptor …; test: flow cytometry on GTL-16 cells (50 ug/ml antibody) and immunofluorescence on fixed GTL-16 cells (2.5 ug/ml)
Protocol: For Flow cytometry analysis, 10⁵ GTL-16 cells were detached with PBS-EDTA 0.025%, washed with PBS and incubated with 50 μg/ml of antiMet-R antibody or the same amount of isotype control mouse Ig for 15′ RT. After 2 washes with PBS, the cells were incubated with 15 μg/ml of FITC conjugated Goat anti-mouse Ig (Jackson Immunoresearch laboratories) for 15′ RT. Cells were than washed, re-suspended in PBS-5% BSA and analysed by flow cytometry (Becton Dickinson, Mountain View, Calif.). GTL-16 cells were fixed in methanol:aceton (3:1) for 5′ on ice then blocked with 2% goat serum in PBS for 30′ at RT. […] Analysis of the samples was performed with a fluorescence microscope (DM-IRB, Leica Microsystems).
GTL-16 cells, a human gastric carcinoma cell line, were incubated with the AntiMET-R antibody. […] Infact the mean of fluorescence intensity in cells labelled with the antiMet-R antibody was increased respect to ctrl cells (FIG. 20, panel A). GTL-16 cells were also incubated, after fixation, with the antiMet-R antibody to perform an immunofluoresce analysis.

Binder	binding result [1]	binding result [2]	binding result [3]	binding result [4]
B1	binds	–	–	–
B2	–	binds	no binding	binds

— patent US20090285807A1 (METHERESIS TRANSLATIONAL RESEARCH, published 2009)
